Paper PMC13317680, “Molecular architecture of the human citrate synthase–malate dehydrogenase 2 metabolon” (Acta Crystallographica Section D: Structural Biology, 2026)

B1: Human citrate synthase (enzyme, UniProt O75390 28-466, looked up)
chain: ASSTNLKDILADLIPKEQARIKTFRQQHGKTVVGQITVDMMYGGMRGMKGLVYETSVLDPDEGIRFRGFSIPECQKLLPKAKGGEEPLPEGLFWLLVTGHIPTEEQVSWLSKEWAKRAALPSHVVTMLDNFPTNLHPMSQLSAAVTALNSESNFARAYAQGISRTKYWELIYEDSMDLIAKLPCVAAKIYRNLYREGSGIGAIDSNLDWSHNFTNMLGYTDHQFTELTRLYLTIHSDHEGGNVSAHTSHLVGSALSDPYLSFAAAMNGLAGPLHGLANQEVLVWLTQLQKEVGKDVSDEKLRDYIWNTLNSGRVVPGYGHAVLRKTDPRYTCQREFALKHLPNDPMFKLVAQLYKIVPNVLLEQGKAKNPWPNVDAHSGVLLQYYGMTEMNYYTVLFGVSRALGVLAQLIWSRALGFPLERPKSMSTEGLMKFVDSKSG
notes: Human citrate synthase, mitochondrial, UniProt O75390, amino acids 28-466; Dimer in solution by SAXS; PDB 5uzr was the starting model for the SAXS fit; also called hCS; CS; source: E. coli, purified (HisTrap nickel column, Sephacryl S200 SEC)

Experiments:
[1] = molecular target: Human citrate synthase (human) (UniProt O75390); experiment: SEC-SAXS; glutaraldehyde cross-linked hMDH2-hCS; Shodex KW-803, 50 mM sodium phosphate pH 7, 100 mM NaCl, 2 mM DTT, 2% glycerol, 10°C; LightDock models fitted with FoXS
[2] = molecular target: Human citrate synthase (human) (UniProt O75390)
[3] = molecular target: the molecule itself; experiment: SAXS (SEC-SAXS and HT-SAXS); hCS alone, 0.07-2.0 mg/ml in 50 mM Tris-HCl, 100 mM NaCl, 0.1 mM EDTA pH 7.5, 10°C; data compared with crystal structures and a normal-mode model (FoXS)

Row | Molecule | stoichiometry N (hMDH2 (dimer) per hCS (dimer)) [1] | NADH production (A340), hMDH2 titrated into 2.5 µM hCS at hMDH2:hCS molar ratios 0:1 to 3:1; no saturation (hMDH2 dimer per hCS dimer) [2] | stoichiometry N [3]
1 | Human mitochondrial malate dehydrogenase 2 (from UniProt P40926-1 25-338) (enzyme) | 2 | > 1 | 
2 | B1 |  |  | 2
